Laboratory results as given in patent publication EP0528271A1.

Molecular target: human PTH receptor on mouse cranial bone-derived osteoblast-like cell strain MC3T3-EI (mouse cell strain (receptor given as 'human PTH receptor')) (UniProt P41593)
Assay: cell-based or functional assay

Sequence of UniProt P41593 (P41593 27-591): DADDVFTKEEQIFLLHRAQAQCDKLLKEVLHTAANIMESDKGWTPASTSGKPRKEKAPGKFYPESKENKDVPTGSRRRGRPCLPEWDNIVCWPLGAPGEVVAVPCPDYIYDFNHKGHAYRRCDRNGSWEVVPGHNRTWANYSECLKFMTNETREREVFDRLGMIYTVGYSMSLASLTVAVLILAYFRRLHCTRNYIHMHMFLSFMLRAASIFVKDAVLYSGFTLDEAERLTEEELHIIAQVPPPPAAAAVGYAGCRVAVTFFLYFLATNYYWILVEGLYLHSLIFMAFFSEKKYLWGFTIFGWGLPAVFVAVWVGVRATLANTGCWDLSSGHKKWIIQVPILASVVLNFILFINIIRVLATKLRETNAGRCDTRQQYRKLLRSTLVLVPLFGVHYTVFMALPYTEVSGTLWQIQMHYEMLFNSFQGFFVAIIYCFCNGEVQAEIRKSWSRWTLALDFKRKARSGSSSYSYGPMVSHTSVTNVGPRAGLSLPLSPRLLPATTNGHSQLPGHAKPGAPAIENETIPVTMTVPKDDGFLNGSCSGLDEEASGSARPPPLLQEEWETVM

| Substance | Specific Activity (cAMP production in MC3T3-EI cells) (relative to natural type human PTH) |
| --- | --- |
| [Cys³⁵] human PTH (1-84) (ligand) | 0.6 |
| Human PTH (1-84) (ligand) | 1 |
| [Leu^8,18] human PTH (1-84) (ligand) | 0.3 |

Second part, the substance after the results:

| Specific Activity (cAMP production in MC3T3-EI cells) (relative to natural type human PTH) | Substance |
| --- | --- |
| 1 | [Leu⁸] human PTH (1-84) (ligand) |
| 0.2 | [Leu⁸] human PTH (second row with this label in the specific activity table; identity uncertain) (ligand) |
